From patent US20250282869A1 (Amgen, published 2025)

Experiments:
[1] = biological target: T1, CD3ε (aa 1-27)-chicken albumin fusion protein, human (human; chicken, UniProt P07766 22-48); test: SPR, CD3ε (aa 1-27)-chicken albumin immobilized on CM5 chip, construct in solution
T1 construct: range 1-27; Immobilized on CM5 sensor chips; The order of the parts follows the printed name; also called Human CD3; CD3E fusion protein; not shown: chicken albumin
Procedure: CD3 binding affinity was evaluated using surface plasmon resonance. A CD3E fusion protein (CD3ε (aa 1-27)-chicken albumin) was immobilized on CM5 Sensor Chips in the presence of a sodium acetate buffer (pH 4.5). The DLL3 multichain TCE proteins described above diluted in HBS-EP buffer were applied at different concentrations to determine the molecule association rates with CD3ε. HBP-EP buffer alone was then added to allow analysis of the molecule dissociation rates.

[2] = biological target: T2, cynomolgus monkey DLL3 (cynomolgus monkey, UniProt A0A2K5WSR1 27-584); test: flow cytometry, on-cell binding to CHO cells stably expressing cynomolgus monkey DLL3, anti-Fc detection
T2 construct: whole, on cells; also called cyno DLL3
T2 sequence: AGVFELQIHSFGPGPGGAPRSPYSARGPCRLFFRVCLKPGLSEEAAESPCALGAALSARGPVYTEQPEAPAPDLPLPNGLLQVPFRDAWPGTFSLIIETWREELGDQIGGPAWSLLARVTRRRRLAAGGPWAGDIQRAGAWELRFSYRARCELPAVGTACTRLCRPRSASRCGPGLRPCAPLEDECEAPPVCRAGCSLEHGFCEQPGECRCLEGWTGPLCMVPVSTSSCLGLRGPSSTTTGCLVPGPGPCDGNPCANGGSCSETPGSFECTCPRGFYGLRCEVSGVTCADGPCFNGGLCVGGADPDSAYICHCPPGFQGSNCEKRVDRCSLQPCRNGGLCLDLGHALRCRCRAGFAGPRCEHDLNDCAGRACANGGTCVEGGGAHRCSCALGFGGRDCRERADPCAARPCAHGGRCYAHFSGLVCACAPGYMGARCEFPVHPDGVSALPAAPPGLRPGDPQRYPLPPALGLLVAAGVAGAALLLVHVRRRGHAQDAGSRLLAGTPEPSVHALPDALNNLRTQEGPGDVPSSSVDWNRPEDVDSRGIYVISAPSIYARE
Procedure: (§1) In particular, on-cell binding affinity for DLL3 was evaluated using Chinese Hamster Ovary (CHO) cells engineered to stably express either human or cynomolgus monkey DLL3. The engineered CHO cells were incubated with DLL3 multichain TCE proteins comprising two different DLL3-binders (“DLL3_1” or “DLL3_2”) for 4 hours at 4° C. in buffer (phosphate buffered saline with 1% fetal bovine serum). After incubation, the cells were washed in buffer, and then bound DLL3 multichain proteins were detected by incubation with a fluorescently labeled antibody directed to the fragment crystallizable (Fc) region of the proteins. Bound proteins were analyzed by flow cytometry and the EC50 values were calculated from non-linear regression analysis using GraphPad Prism.

[3] = biological target: T3, human delta-like ligand 3 (DLL3) (human, UniProt Q9NYJ7 27-618); test: flow cytometry, on-cell binding to CHO cells stably expressing human DLL3, anti-Fc detection
T3 construct: whole, on cells; also called Human DLL3; huDLL3
T3 sequence (looked up): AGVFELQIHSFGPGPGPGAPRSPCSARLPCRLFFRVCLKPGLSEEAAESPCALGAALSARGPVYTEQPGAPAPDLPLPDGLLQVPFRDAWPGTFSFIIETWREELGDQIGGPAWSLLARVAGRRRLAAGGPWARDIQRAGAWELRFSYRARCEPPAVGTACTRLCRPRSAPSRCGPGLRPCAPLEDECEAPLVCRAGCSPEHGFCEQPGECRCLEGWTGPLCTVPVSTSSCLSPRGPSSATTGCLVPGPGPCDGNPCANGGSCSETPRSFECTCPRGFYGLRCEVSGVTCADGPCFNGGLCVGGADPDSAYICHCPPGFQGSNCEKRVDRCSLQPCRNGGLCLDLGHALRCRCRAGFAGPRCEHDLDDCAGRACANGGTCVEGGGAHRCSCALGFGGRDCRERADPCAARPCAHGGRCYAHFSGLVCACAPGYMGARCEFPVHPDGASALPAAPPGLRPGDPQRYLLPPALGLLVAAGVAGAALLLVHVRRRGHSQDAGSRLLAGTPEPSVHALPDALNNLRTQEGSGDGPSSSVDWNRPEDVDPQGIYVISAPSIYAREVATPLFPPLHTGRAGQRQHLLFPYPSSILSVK
Procedure: as §1

[4] = biological target: T2, cynomolgus monkey DLL3; test: cell-based or functional assay
[5] = biological target: T3, human delta-like ligand 3 (DLL3); test: cell-based or functional assay

T1 sequence (P07766 22-48 limits assumed): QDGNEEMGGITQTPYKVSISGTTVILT

B1: DLL3_2 hetero IgG (SEFL2)(YTE) (bispecific antibody)
heavy 1: not shown
light 1: DIVMTQTPLSLSVTPGQPASISCKSSQSLLHSDGKTFLYWYLQKPGQPPQLLIYEVSNRFSGVPDRFSGSGSGTDFTLKISRVEAEDVGVYYCLQGIHLPFTFGPGTKVEIKRTVAAPSVFIFPPSDEQLKSGTASVVCLLNNFYPREAKVQWKVDNALQSGNSQESVTEQDSKDSTYSLESTLTLSKADYEKHKVYACEVTHQGLSSPVTKSFNRGEC
heavy 2: EVQLVESGGGLVQPGGSLKLSCAASGFTFNKYAINWVRQAPGKGLEWVARIRSKYNNYATYYADAVKDRFTISRDDSKNTVYLQMNNLKTEDTAVYYCARAENIGTSYISYWAYWGQGTLVTVSSASTKGPSVFPLAPSSKSTSGGTAALGCLVKDYFPEPVTVSWNSGALTSGVHTFPAVLQSSGLYSLESVVTVPSSSLGTQTYICNVNHKPSNTKVDKKVEPKSCDKTHTCPPCPAPELLGGPSVFLFPPKPKDTLYITREPEVTCVVVDVSHEDPEVKFNWYVDGVEVHNAKTKPCEEQYGSTYRCVSVLTVLHQDWLNGKEYKCKVSNKALPAPIEKTISKAKGQPREPQVYTLPPSRKEMTKNQVSLTCLVKGFYPSDIAVEWESNGQPENNYKTTPPVLKSDGSFFLYSKLTVDKSRWQQGNVFSCSVMHEALHNHYTQKSLSLSPGK
light 2: not shown
Q: Which results are given for B1?
A: Kd [1]: 7.84 nM; EC50 [2]: 0.04 nM; EC50 [3]: 0.035 nM; T cell dependent cellular cytotoxicity (TDCC) EC50, CHO-cyno DLL3 [4]: 0.0227 nM; T cell dependent cellular cytotoxicity (TDCC) EC50, CHO-huDLL3 [5]: 0.1 nM
